In assay [1] the target is His-tagged eukaryotic translation initiation factor 1 (His–eIF1), labelled with NT650 (UniProt P32911). Nature of the assay: temperature-related intensity change assay.
Assay [2] has the same target. Nature of the assay: temperature-related intensity change assay. The source holds these as a separate data set.

Like-named read-outs stand apart in the source and are kept apart here.

In general, Kd refers to the free concentration of one partner at which half of the binding sites on the other are occupied at equilibrium, for simple one-to-one binding. The low end stands for higher affinity, the high end for lower affinity.

Sequence of UniProt P32911 (P32911 whole entry): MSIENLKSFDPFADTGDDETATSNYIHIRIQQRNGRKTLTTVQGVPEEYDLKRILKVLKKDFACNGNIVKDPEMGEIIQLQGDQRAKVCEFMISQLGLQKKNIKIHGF

For the substance “hypo-2′-O-methylated 40S ribosomal subunit from bcd1-D72A yeast cells (from UniProt P05750 1-240) (complex)”, the values for the equilibrium dissociation constant (Kd) in assay [1] and in assay [2] were 64 nM and 63 nM, respectively.

Turning to “40S ribosomal subunit from wild-type control (BY4741 / BCD1) yeast cells (from UniProt P05750 1-240) (complex)”, the Kd in assay [1] worked out at 23 nM.

The record behind these values is article PMC8944910.
